From patent US20230071371A1 (Scripps Research, published 2023)
Read-outs that look alike come from different tables or passages of the source. Bridges are numbered along the chain shown (N, C = ends). Where no end group is shown, it is not given here. [ ]: non-standard residue; d: D form. NMeR = CN[C@@H](CCCNC(=N)N)C(=O)O; hArg = N=C(N)NCCCC[C@H](N)C(=O)O; β3hR = N=C(N)NCCC[C@H](N)CC(=O)O; staple K20 = not defined here; staple K4 = not defined here; staple K8 = not defined here; staple K9 = not defined here; Nle = CCCC[C@H](N)C(=O)O; L1 = not defined here; L3 = not defined here; L4 = not defined here; L5 = not defined here; Aib = CC(C)(N)C(=O)O

T1: human GIPR (human, UniProt P48546 22-466)
T1 sequence (looked up): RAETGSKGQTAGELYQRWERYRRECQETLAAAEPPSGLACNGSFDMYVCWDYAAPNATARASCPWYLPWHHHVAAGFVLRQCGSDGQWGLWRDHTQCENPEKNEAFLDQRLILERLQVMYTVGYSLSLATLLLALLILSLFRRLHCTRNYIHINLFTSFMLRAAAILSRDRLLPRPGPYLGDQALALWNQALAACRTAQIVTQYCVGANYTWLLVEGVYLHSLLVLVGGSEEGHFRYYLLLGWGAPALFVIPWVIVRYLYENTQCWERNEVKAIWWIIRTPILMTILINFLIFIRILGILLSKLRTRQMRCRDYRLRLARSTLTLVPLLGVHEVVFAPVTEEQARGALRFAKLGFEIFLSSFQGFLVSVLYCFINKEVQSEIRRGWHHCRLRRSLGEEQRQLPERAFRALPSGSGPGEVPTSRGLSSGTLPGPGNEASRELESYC

T2: GPR10 (UniProt P49683 1-370, limits assumed)
T2 sequence (looked up): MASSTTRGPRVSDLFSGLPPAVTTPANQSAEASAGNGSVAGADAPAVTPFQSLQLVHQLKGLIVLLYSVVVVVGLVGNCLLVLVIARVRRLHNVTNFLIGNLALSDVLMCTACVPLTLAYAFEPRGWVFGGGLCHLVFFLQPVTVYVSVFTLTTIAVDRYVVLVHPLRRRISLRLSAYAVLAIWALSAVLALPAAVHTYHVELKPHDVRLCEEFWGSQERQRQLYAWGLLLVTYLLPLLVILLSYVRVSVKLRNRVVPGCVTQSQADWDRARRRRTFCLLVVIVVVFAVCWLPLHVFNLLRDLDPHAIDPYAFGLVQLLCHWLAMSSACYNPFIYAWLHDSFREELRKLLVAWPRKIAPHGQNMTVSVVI

B1: Conjugate 139 (peptide)
peptide: YXEGTFTSDYSIYLDKKAAXEFVKWLLAGGPSSGAPPPS
modifications: staple K5 on Lys 17, 24; Aib 2, 20
B2: Conjugate 140 (peptide)
peptide: B1 peptide
modifications: staple K4 on Lys 17, 24; Aib 2, 20
B3: Conjugate 143 (peptide)
peptide: Y[Aib]EGTFTSDYSIYLDKKAA[Aib]EFVKWLLAGGPSSGAPPPS
modifications: linker 17-24 via staple K9; reading uncertain
B4: Conjugate 145 (peptide)
peptide: Y[Aib]EGTFTSDYSIYKDKQAA[Aib]KFKNWLKAGGPSSGAPPPS
modifications: linker 23-27 via staple K4; not fully specified; reading uncertain
B5: Conjugate 152 (peptide)
peptide: Y[Aib]EGTFTSDYSIYKDKQAA[Aib]KFVNWLLAGGPSSGAPPPS
modifications: linker 14-21 via staple K8; not fully specified; reading uncertain
B6: Conjugate 157 (peptide)
peptide: Y[Aib]EGTFTSDYSIYKDKQAA[Aib]KFKNWLKAGGPSSGAPPPS
modifications: linker 23-27 via staple K20; reading uncertain
B7: SEQ ID NO 107 (peptide)
peptide: SRAHQHSMETRTPDINPAWYTGRGIRPVGRF-NH2
B8: SEQ ID NO 90 (peptide)
peptide: SRAHQCSMETRTCDINPAWYTGRGIRPVGRF-NH2
modifications: cysteine pairing not given here
B9: Conjugate 226 (peptide)
peptide: SRAHQCSMETRTCDINPAWYTGRGIRPVGRF-NH2
modifications: linker 6-13 via L1; reading uncertain
B10: Conjugate 236 (peptide)
peptide: SRAHQCSMETRTCDINPAWYTGRGIRPVGRF-NH2
modifications: linker 6-13 via L3; reading uncertain
B11: Conjugate 237 (peptide)
peptide: SRAHQCSMETRTCDINPAWYTGRGIRPVGRF-NH2
modifications: linker 6-13 via L4; reading uncertain
B12: Conjugate 238 (peptide)
peptide: SRAHQCSMETRTCDINPAWYTGRGIRPVGRF-NH2
modifications: linker 6-13 via L5; reading uncertain
B13: Conjugate 231 (peptide)
peptide: SRAHQHSMETRTPDINPCWYTGRGCRPVGRF-NH2
modifications: linker 18-25 via L1; reading uncertain
B14: Conjugate 248 (peptide)
peptide: SRAHQHSMETRTPDINPCWYTGRGCRPVGRF-NH2
modifications: linker 18-25 via L3; reading uncertain
B15: Conjugate 249 (peptide)
peptide: SRAHQHSMETRTPDINPCWYTGRGCRPVGRF-NH2
modifications: linker 18-25 via L4; reading uncertain
B16: Conjugate 250 (peptide)
peptide: SRAHQHSMETRTPDINPCWYTGRGCRPVGRF-NH2
modifications: linker 18-25 via L5; reading uncertain
B17: SEQ ID NO 96 (peptide)
peptide: SRAHQHSMETRTPDINPAWCTGRGIRCVGRF-NH2
modifications: cysteine pairing not given here
B18: Conjugate 232 (peptide)
peptide: SRAHQHSMETRTPDINPAWCTGRGIRCVGRF-NH2
modifications: linker 20-27 via L1; reading uncertain
B19: SEQ ID NO 97 (peptide)
peptide: SRAHQCS[Nle]ETRTCDINPAWYTG[hArg]GIRPVGRF-NH2
modifications: cysteine pairing not given here
B20: SEQ ID NO 98 (peptide)
peptide: SRAHQCS[Nle]ETRTCDINPAWYTG[β3hR]GIRPVGRF-NH2
modifications: cysteine pairing not given here
B21: Conjugate 252 (peptide)
peptide: SRAHQCS[Nle]ETRTCDINPAWYTG[β3hR]GIRPVGRF-NH2
modifications: linker 6-13 via L1; reading uncertain
B22: Conjugate 256 (peptide)
peptide: SRAHQCS[Nle]ETRTCDINPAWYTG[β3hR]GIRPVGRF-NH2
modifications: linker 6-13 via L3; reading uncertain
B23: Conjugate 260 (peptide)
peptide: SRAHQCS[Nle]ETRTCDINPAWYTG[β3hR]GIRPVGRF-NH2
modifications: linker 6-13 via L4; reading uncertain
B24: Conjugate 264 (peptide)
peptide: SRAHQCS[Nle]ETRTCDINPAWYTG[β3hR]GIRPVGRF-NH2
modifications: linker 6-13 via L5; reading uncertain
B25: SEQ ID NO 99 (peptide)
peptide: SRAHQCS[Nle]ETRTCDINPAWYTG[NMeR]GIRPVGRF-NH2
modifications: cysteine pairing not given here
B26: Conjugate 253 (peptide)
peptide: SRAHQCS[Nle]ETRTCDINPAWYTG[NMeR]GIRPVGRF-NH2
modifications: linker 6-13 via L1; reading uncertain
B27: Conjugate 257 (peptide)
peptide: SRAHQCS[Nle]ETRTCDINPAWYTG[NMeR]GIRPVGRF-NH2
modifications: linker 6-13 via L3; reading uncertain
B28: Conjugate 261 (peptide)
peptide: SRAHQCS[Nle]ETRTCDINPAWYTG[NMeR]GIRPVGRF-NH2
modifications: linker 6-13 via L4; reading uncertain
B29: Conjugate 265 (peptide)
peptide: SRAHQCS[Nle]ETRTCDINPAWYTG[NMeR]GIRPVGRF-NH2
modifications: linker 6-13 via L5; reading uncertain
B30: SEQ ID NO 100 (peptide)
peptide: SRAHQCS[Nle]ETRTCDINPAWYTGRGIRPVG[hArg]F-NH2
modifications: cysteine pairing not given here
B31: SEQ ID NO 101 (peptide)
peptide: SRAHQCS[Nle]ETRTCDINPAWYTGRGIRPVG[β3hR]F-NH2
modifications: cysteine pairing not given here
B32: SEQ ID NO 102 (peptide)
peptide: SRAHQCS[Nle]ETRTCDINPAWYTGRGIRPVG[NMeR]F-NH2
modifications: cysteine pairing not given here
B33: Conjugate 254 (peptide)
peptide: SRAHQCS[Nle]ETRTCDINPAWYTGRGIRPVG[NMeR]F-NH2
modifications: linker 6-13 via L1; reading uncertain
B34: Conjugate 258 (peptide)
peptide: SRAHQCS[Nle]ETRTCDINPAWYTGRGIRPVG[NMeR]F-NH2
modifications: linker 6-13 via L3; reading uncertain
B35: Conjugate 262 (peptide)
peptide: SRAHQCS[Nle]ETRTCDINPAWYTGRGIRPVG[NMeR]F-NH2
modifications: linker 6-13 via L4; reading uncertain
B36: Conjugate 266 (peptide)
peptide: SRAHQCS[Nle]ETRTCDINPAWYTGRGIRPVG[NMeR]F-NH2
modifications: linker 6-13 via L5; reading uncertain

Assays:
Test in all cases: cell-based or functional assay
human GLP-1R = human GLP-1R (human, UniProt P43220 24-463)
human GIPR = target: T1, human GIPR
GPR10 [1] = target: T2, GPR10
GPR10 [2] = target: T2, GPR10; remark: listed apart in the source

Row | Binder | GPR10 EC50 (GPR10 [1]) [nM] | GPR10 EC50 (GPR10 [2]) [nM] | also measured
1 | B1 | – | – | EC50 cAMP 0% FBS (human GLP-1R): 0.061 nM; EC50 cAMP 0% FBS (human GIPR): 0.0026 nM
2 | B2 | – | – | EC50 cAMP 0% FBS (human GLP-1R): 0.034 nM; EC50 cAMP 0% FBS (human GIPR): 0.0028 nM
3 | B3 | – | – | EC50 cAMP 0% FBS (human GLP-1R): 0.068 nM; EC50 cAMP 0% FBS (human GIPR): 0.002 nM
4 | B4 | – | – | EC50 cAMP 0% FBS (human GLP-1R): 61.4 nM
5 | B5 | – | – | EC50 cAMP 0% FBS (human GIPR): 0.05 nM
6 | B6 | – | – | EC50 cAMP 0% FBS (human GLP-1R): 16.4 nM
7 | B7 | 12 | 12 | –
8 | B8 | 29 | 29 | –
9 | B9 | 20 | 20 | –
10 | B10 | 13 | 13 | –
11 | B11 | 80 | 80 | –
12 | B12 | 260 | 260 | –
13 | B13 | 18 | – | –
14 | B14 | 7.5 | – | –
15 | B15 | > 1000 | – | –
16 | B16 | > 1000 | – | –
17 | B17 | 920 | – | –
18 | B18 | 130 | – | –

Row | Binder | GPR10 EC50 (GPR10 [1]) [nM] | GPR10 EC50 (GPR10 [2]) [nM] | also measured
19 | B19 | – | 17 | –
20 | B20 | – | 13 | –
21 | B21 | – | 16 | –
22 | B22 | – | 5.1 | –
23 | B23 | – | 60 | –
24 | B24 | – | 81 | –
25 | B25 | – | 44 | –
26 | B26 | – | 34 | –
27 | B27 | – | 8.8 | –
28 | B28 | – | 120 | –
29 | B29 | – | 160 | –
30 | B30 | – | > 200 | –
31 | B31 | – | > 200 | –
32 | B32 | – | 100 | –
33 | B33 | – | 100 | –
34 | B34 | – | 10 | –
35 | B35 | – | 280 | –
36 | B36 | – | 1100 | –
